US20230293705A1, “NANOPARTICLES INCLUDING A GLATIRAMOID USEFUL IN POLYNUCLEOTIDE DELIVERY” (King AbdulAziz University, priority 2017, published 2023)
No end group written: not given here.

B1: K100: (KKKKKKKKKK)n=10 (SEQ ID NO: 2), Mw = 16,000 Da, high molecular weight polylysine (peptide)
chain: KKKKKKKKKKKKKKKKKKKKKKKKKKKKKKKKKKKKKKKKKKKKKKKKKKKKKKKKKKKKKKKKKKKKKKKKKKKKKKKKKKKKKKKKKKKKKKKKKKKK
modifications: ten repeats of SEQ ID NO:2 motif

Tests used:
pDNA (pGL3) = test: Agarose gel electrophoresis of polycation-pDNA nanoparticles; type: physicochemical; conditions: for immobilization of pDNA in agarose gel: N/P ratio of 0.5
Procedure: Nanoparticle Formation. GA-pDNA nanoparticles, K100-pDNA nanoparticles, and K9-pDNA nanoparticles were prepared by adding 15 µL of the GA, K100, or K9 solutions at polymer nitrogen to pDNA phosphate ([…]) of pDNA (TAE Buffer (1x) was used as a solution for DNA storage), followed by repeated pipetting for 20-25 seconds. At that point, 15 µL of CaCl2 (0 or 38 mmol/L) was added to determine the effect of calcium. After formulating, samples were stored at 4° C. for ~20 minutes. PEI-pDNA nanoparticles were prepared by adding 15 µL of PEI solution (N/P ratio of 10) to 10 µL (0.1 µg/µL) of pDNA followed by pipetting for 20-25 seconds. After preparing PEI-pDNA nanoparticles, they were stored at 4° C. for ~20 minutes. All nanoparticles in this study were prepared immediately before each experiment.
Agarose Gel Electrophoresis. GA-pDNA nanoparticles, K100-pDNA nanoparticles, and K9-pDNA nanoparticles were prepared as defined above and subsequently, 4 µL of Tris-acetate-EDTA (TAE) buffer was added. Then, 4 µL of SYBR Green 1 was mixed with the nanoparticles. Afterward, the mixture was stored at 4° C. for 20-25 minutes. Then, 7 µL of 6X DNA loading dye (Takara Bio Inc., Japan) was added. A one kb DNA ladder (Promega, Madison, WI) was used. The mixture solutions were loaded onto a 1% agarose gel, and electrophoresed for 30 minutes at 110 V.

A549 cells = test: MTS cytotoxicity assay in A549 cells; type: cell-based, human
Procedure: (§1) Cytotoxicity Assay. Cytotoxicity of GA, K100, and K9, PEI, and CaCl2 was determined using a Cell Titer 96® AQueous Non-Radioactive Cell Proliferation Assay (MTS) obtained from Promega (Madison, Wisconsin). A549 and HeLa cells were cultured in a 96-well plate as described previously. Cells were treated with the samples for ~24 hours. Then, the media were replaced with a mixture of 100 µL of fresh serum medium and 20 µL of MTS. The plate was incubated for 3-4 hours in the incubator. To determine cell viability, the absorbance of each well was measured by a microplate reader (SpectraMax; Molecular Devices Crope, CA) at 490 nm and normalized to untreated control cells.

HeLa cells = test: MTS cytotoxicity assay in HeLa cells; type: cell-based, human; conditions: ~24 hours treatment
Procedure: as §1

| Molecule | immobilization of pDNA in agarose gel (pDNA (pGL3)) | cytotoxicity (A549 cells; up to 1 mg/mL, cell line not stated at the place (A549 and HeLa tested)) | complexation of pDNA in agarose gel (pDNA (pGL3); N/P ratio of 1) | cytotoxicity (MTS) (A549 cells; A549 cells, ~24 hours treatment) | cytotoxicity (MTS) (HeLa cells) |
| --- | --- | --- | --- | --- | --- |
| Glatiramer Acetate [GA] | able to immobilize pDNA completely | negligible cytotoxicity |  |  |  |
| K9: KKKKKKKKK (SEQ ID NO: 1), C-terminal amide, Mw = 1170.65 Da (KKKKKKKKK-NH2) | did not |  | did not completely complex pDNA |  |  |
| B1 | able to immobilize pDNA completely |  |  | highly cytotoxic at low concentrations | highly cytotoxic at low concentrations |
